US20230203146A1
Residue numbers refer to the chain shown, from its start.

B1: VHH 1D01 (VHH, not shown: small tags and cut ends)
VHH: EVQLVESGGGLVQAGGSLRLSCAASGFTFDDYALGWFRQAAGKEREGVSCIRCSDGSTYYADSVKGRFTISSDNAKNTVYLQMNSLKPEDTAVYYCAASIVPRSKLEPYEYDAWGQGTQVTVSS
B2: VHH 24B05 (VHH, not shown: small tags and cut ends)
VHH: EVQLVESGGGLVQPGGSLRLSCAASGFTLDYYAIGWFRQAPGKEWEGVSCISSSDGSTYYADSVKGRFTISRDNAKNTVYLQMNSLKPEDTAVYYCATDSIVCGSYYGMDYWGKGTQVTVSS
B3: VHH 8A11 (VHH, not shown: small tags and cut ends)
VHH: EVQLVESGGGLVQAGGSLRLSCAASGRTFSSYAMGWFRQAPGKELEFVTAVSWSGGSTYYADSVKGRFTISRDSAKNTVYLQMNSLKPEDTAVYYCAAQSTIVEVTTLEAYDYWGQGTQVTVSS
B4: VHH 11B07 (VHH, not shown: small tags and cut ends)
VHH: EVQLVESGGGLVQVGDSLRLSCAASGRTFSTYLMVGWFRQAPGKEREFAAGIWSSGDTAYADSVRGRFTISRDNAKNTVYLQMNSLKTEDTAVYYCAGSYDGNYYIPGFYKDWGQGTQVTVSS
B5: VHH 15H04 (VHH, not shown: small tags and cut ends)
VHH: EVQLVESGGGLVQAGGSLGLSCAASERTLPSYVMGWFRQAPGKELEFVAGISWSSGRTYYTDSVKGRFTISRDAAENTWYLQMNSLKPEDTAVYYCASNSVSEPTLHTWQYEASYDYWGQGTQVTVSS
B6: VHH 16G09 (VHH, not shown: small tags and cut ends)
VHH: EVQLVESGGGLVQAGGSLRLVCSASGIDFSINAMAWYRQAPGKQREWVAFMINDSSTDYTDSVKGRFTISRDSTKNILYLQMNNLNVEDTAVYYCNTAYEQHTYWGQGTQVTVSS
B7: VHH 10C06 (VHH, not shown: small tags and cut ends)
VHH: EVQLVESGGGLVQAGGSLRLSCVASGFTFDDYAIGWFRQAPGKEREGVSCISSSDGSTYYADSVKGRFTISGDNAKNTVYLQMNSLKPEDTAVYYCAAGITPCSDYTQTYEYDVWGQGTQVTVSS
B8: VHH 22C07 (VHH, not shown: small tags and cut ends)
VHH: EVQLVESGGGLVQAGGSLRLSCAASGFTFDDYAIGWFRQAPGKEREGVSCISSSDGSTYYADSVKGRFTISSDNAKNTVYLQMNSLKPEDTAVYYCAADFIISSKRLCLDLFGSRGQGTQVTVSS
B9: VHH 12B03 (VHH, not shown: small tags and cut ends)
VHH: EVQLVESGGGLVQSGGSLRLSCAASGFALDYYTIGWFRQAPGKEREGVSCISGGDTSTYYADSVKGRFTISRDNAKNTVYLQMNSLKPEDTAVYYCATDSAGVPAGPAAVYGSTCSRLEYDYWGQGAQVTVSS
B10: VHH 21G10 (VHH, not shown: small tags and cut ends)
VHH: EVQLVESGGGLVQAGGSLRLSCAASGFTLDDYAIGWFRQAPGKEREGVSCISSSDGSTTYADSVKGRFTVSSDNAKNTVYLQMNSLKPEDTAVYYCAAGLRGRYYRGTYSLVCAPYEYDFWGQGTQVTVSS
B11: VHH 13A02 (VHH, not shown: small tags and cut ends)
VHH: EVQLVESGGGLVQAGGSLRLSCAASGGTFSSYSMGWFRQAPGKEREFIAAINWNGDSTYYEDSVKGRFTVSRDNAKNTVYLQMNSLKPEDTAVYYCAATGWGRAYEQAYEYDVWGQGTQVTVSS
B12: VHH 7G08 (VHH, not shown: small tags and cut ends)
VHH: EVQLVESGGGLVQPGGSLRLSCAASGFALDYYAIGWFRQVPGKEREGVSCISSSDGITYYVDSVKGRFTISRDNAKNTVYLQMNSLKPEDTAVYYCATDSGGYIDYDCMGLGYDYWGQGTQVTVSS
B13: VHH 14H02 (VHH, not shown: small tags and cut ends)
VHH: EVQLVESGGGLVQAGGSLRLSCAASGFTFDEYAIGWFRQAPGKEREGVSYISSSDGSTYYADSVKGRVTSSSDNAKNTVYLQMNSLKPEDTAVYYCAARPTLRVRLDNDRHHLLYEYEYDYWGQGTQVTVSS
B14: VHH 00932 (VHH, not shown: small tags and cut ends)
VHH: EVQLVESGGGLVQPGGSLRLSCAVSGITLDDYAIGWFRQAPGKEREGVSSIRDNGGSTYYADSVKGRFTISSDNSKNTVYLQMNSLRPEDTAVYYCAAVPAGRLRYGEQWYPIYEYDAWGQGTLVTVSS
B15: VHH 00938 (VHH, not shown: small tags and cut ends)
VHH: B14 VHH with S50A, D53S, N54S
B16: VHH 00937 (VHH, not shown: small tags and cut ends)
VHH: B14 VHH with S50A, D53E, N54S
B17: VHH 00936 (VHH, not shown: small tags and cut ends)
VHH: B14 VHH with S50A
B18: VHH 37F02 (VHH, not shown: small tags and cut ends)
VHH: B12 VHH with V40A
B19: VHH 28D10 (VHH, not shown: small tags and cut ends)
VHH: EVQLVESGGGLVQAGGSLRLSCAASGFTLDDYAIGWFRQAPGKEREGVSCIRDSDGSTYYADSVKGRFTISSDNDKNTVYLQMNSLKPEDTAVYYCAAVPAGRLRFGEQWYPLYEYDAWGQGTQVTVSS
B20: VHH 00935 (VHH, not shown: small tags and cut ends)
VHH: B14 VHH with V24A, S50A, D53S, N54S
B21: VHH 00908 (VHH, not shown: small tags and cut ends)
VHH: B14 VHH with V24A
B22: VHH 00956 (VHH, not shown: small tags and cut ends)
VHH: B19 VHH with A14P, C50A, D53S, D55G, D75S, K87R, Q124L
B23: VHH 00919 (VHH, not shown: small tags and cut ends)
VHH: B14 VHH with V24A, I27F, S50A, Y106F, I113L
B24: VHH 00933 (VHH, not shown: small tags and cut ends)
VHH: B14 VHH with V24A, S50A
B25: VHH 00934 (VHH, not shown: small tags and cut ends)
VHH: B14 VHH with V24A, S50A, D53E, N54S
B26: VHH 00054 (VHH, not shown: small tags and cut ends)
VHH: B14 VHH with V24A, I27F, G55D, S72R, Y106F, I113L
B27: VHH 00043 (VHH, not shown: small tags and cut ends)
VHH: B19 VHH with A14P, C50S, S54N, S72R, D75A, K87R, Q124L
B28: VHH 00053 (VHH, not shown: small tags and cut ends)
VHH: B19 VHH with A14P, C50S, S54N, S72R, K87R, Q124L
B29: VHH 00055 (VHH, not shown: small tags and cut ends)
VHH: B19 VHH with C50S, S54N, D55G, Q124L
B30: VHH 00041 (VHH, not shown: small tags and cut ends)
VHH: B19 VHH with A14P, C50S, S54N, D75A, K87R, Q124L
B31: VHH 00048 (VHH, not shown: small tags and cut ends)
VHH: B19 VHH with C50S, Q124L
B32: VHH 00042 (VHH, not shown: small tags and cut ends)
VHH: B14 VHH with V24A, I27F, G55D, Y106F, I113L
B33: VHH 00025 (VHH, not shown: small tags and cut ends)
VHH: B19 VHH with C50T, Q124L
B34: VHH 00027 (VHH, not shown: small tags and cut ends)
VHH: B19 VHH with C50S, S54N, Q124L
B35: VHH 00052 (VHH, not shown: small tags and cut ends)
VHH: B19 VHH with A14P, C50S, S54N, K87R, Q124L
B36: VHH 14A08 (VHH, not shown: small tags and cut ends)
VHH: EVQLVESGGGLVQAGGSLRLSCASSGFTFDDYAIGWFRQAPGKEREGVSCISSSDGSTYYADSVKGRFTISSDNAKNTVYLQMNSLKPEDTAVYYCAARPPFHSCSEYENDYWGQGTQVTVSS
B37: VHH 37A09 (VHH, not shown: small tags and cut ends)
VHH: B12 VHH with V5M, E89G

Target: FLAG tagged human Ang2 (Alexis Biochemicals) (human) (UniProt O15123)
Experiment: competition ELISA, FLAG-hAng2 (0.02 nM) on coated hTie2/Fc

Sequence of FLAG tagged human Ang2 (Alexis Biochemicals) (human) (O15123 19-496): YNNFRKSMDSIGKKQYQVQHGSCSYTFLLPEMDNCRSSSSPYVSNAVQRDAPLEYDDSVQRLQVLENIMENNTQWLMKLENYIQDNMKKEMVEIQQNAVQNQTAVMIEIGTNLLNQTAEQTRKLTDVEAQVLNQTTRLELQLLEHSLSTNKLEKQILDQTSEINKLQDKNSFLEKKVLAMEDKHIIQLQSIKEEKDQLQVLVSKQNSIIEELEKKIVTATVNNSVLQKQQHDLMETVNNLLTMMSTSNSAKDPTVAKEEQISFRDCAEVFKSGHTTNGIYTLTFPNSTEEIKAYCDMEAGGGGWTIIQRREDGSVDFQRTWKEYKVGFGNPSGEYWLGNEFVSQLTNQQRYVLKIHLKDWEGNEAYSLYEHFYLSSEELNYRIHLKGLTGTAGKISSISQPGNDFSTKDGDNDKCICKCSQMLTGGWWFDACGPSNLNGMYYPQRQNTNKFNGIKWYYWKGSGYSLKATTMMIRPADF

Compared with B1, B2 is 3.4-fold lower in IC50: 3.4 nM for the first, 1 nM for the second. The second is the more potent here.

Going from B3 to B4, the IC50 falls from 30.2 nM to 5.4 nM (5.6-fold). The second is the more potent here.

First: B5
Second: B6
The IC50 of the first is 1.6-fold higher: 18.6 nM for the first, 11.3 nM for the second. The second is the more potent here.

B7 and B8 are within 1.5-fold of each other in IC50: 7.7 nM for the first, 11 nM for the second.

B9 and B10 are within 1.5-fold of each other in IC50: 4.6 nM for the first, 6.2 nM for the second.

Compared with B11, B12 is 59-fold lower in IC50: 4.1 nM for the first, 0.07 nM for the second. The second is the more potent here.

B13 was tested, and the IC50 was 64.4 nM.

Target: FLAG-tagged recombinant human Ang1 (human) (UniProt Q15389)
Experiment: ratio of IC50s in hAng1/hTie2 and hAng2/hTie2 competition ELISA

Sequence of FLAG-tagged recombinant human Ang1 (human) (Q15389 20-498 limits assumed): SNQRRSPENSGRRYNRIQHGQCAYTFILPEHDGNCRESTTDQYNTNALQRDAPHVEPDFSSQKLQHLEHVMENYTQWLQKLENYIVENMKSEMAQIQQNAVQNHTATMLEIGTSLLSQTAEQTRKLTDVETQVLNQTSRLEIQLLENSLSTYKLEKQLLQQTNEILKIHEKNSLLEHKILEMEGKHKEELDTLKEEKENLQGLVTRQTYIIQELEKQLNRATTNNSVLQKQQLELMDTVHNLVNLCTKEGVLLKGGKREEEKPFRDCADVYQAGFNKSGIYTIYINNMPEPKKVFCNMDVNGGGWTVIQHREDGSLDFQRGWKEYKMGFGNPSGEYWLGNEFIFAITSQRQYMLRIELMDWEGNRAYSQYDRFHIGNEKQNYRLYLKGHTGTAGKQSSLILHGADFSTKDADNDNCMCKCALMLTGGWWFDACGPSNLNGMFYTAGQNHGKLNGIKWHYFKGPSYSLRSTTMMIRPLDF

B14 and B15 cannot be ordered by hAng1/hAng2 IC50 ratio: over 206000 for the first, over 201000 for the second.

B16 and B17 cannot be ordered by hAng1/hAng2 IC50 ratio: over 186000 for the first, over 224000 for the second.

B18 and B20 cannot be ordered by hAng1/hAng2 IC50 ratio: over 130000 for the first, over 146000 for the second.

B21 and B22 cannot be ordered by hAng1/hAng2 IC50 ratio: over 192000 for the first, over 7730 for the second.

B24 and B25 cannot be ordered by hAng1/hAng2 IC50 ratio: over 180000 for the first, over 157000 for the second.

B18 and B19 cannot be ordered by hAng1/hAng2 ratio: over 130000 for the first, over 5680 for the second.

For B23, the hAng1/hAng2 ratio was over 11200.

Target: FLAG-tagged human Ang2 (human) (UniProt O15123)
Experiment: competition ELISA: FLAG-hAng2 binding to coated hTie2-Fc

Sequence of FLAG-tagged human Ang2 (human) (O15123 19-496): as the sequence (O15123 19-496) above

First: B19
Second: B26
The IC50 of the first is 5.3-fold lower: 1.8 nM for the first, 9.5 nM for the second. The first is the more potent here.

B27 and B28 are within 1.5-fold of each other in IC50: 9.5 nM for the first, 10.7 nM for the second.

Going from B29 to B30, the IC50 falls from 1.8 nM to 0.6 nM (3-fold). The second is the more potent here.

B31 and B32 are within 1.5-fold of each other in IC50: 0.6 nM for the first, 0.7 nM for the second.

First: B33
Second: B34
The IC50 of the first is 3-fold higher: 2.1 nM for the first, 0.7 nM for the second.

B35 gave an IC50 of 1 nM.

Target: FLAG tagged human Ang2 (Alexis Biochemicals) (human) (UniProt O15123)
Experiment: AlphaScreen competition, periplasmic extract, FLAG-hAng2 / biotin-hTie2/Fc

Compared with B2, B3 is lower in % inh: 97% for the first, 57% for the second.

First: B5
Second: B8
The % inh of the first is lower: 57% for the first, 73% for the second.

First: B11
Second: B19
The % inh of the first is higher: 91% for the first, 89% for the second.

In the case of B36, the % inh is reported as 52%.

Target: FLAG tagged human Ang2 (Alexis Biochemicals) (human) (UniProt O15123)
Experiment: competition ELISA, FLAG-hAng2 (0.02 nM) on coated hTie2/Fc
Remark: another data set of the same source

Going from B1 to B2, the IC50 falls from 6.2 nM to 1.1 nM (5.6-fold). The second is the more potent here.

Going from B4 to B11, the IC50 rises from 14 nM to 23 nM (1.6-fold).

First: B12
Second: B18
The IC50 of the first is 2-fold lower: 0.04 nM for the first, 0.08 nM for the second. The first is the more potent here.

Going from B37 to B19, the IC50 rises from 0.1 nM to 1.3 nM (13-fold).

Target: N-terminally FLAG-tagged mouse Ang2 (HEK293T conditioned medium) (mouse) (UniProt O35608)
Experiment: competition ELISA, periplasmic extract, FLAG-mAng2 on mTie2/Fc

Sequence of N-terminally FLAG-tagged mouse Ang2 (HEK293T conditioned medium) (mouse) (O35608 19-496 limits assumed): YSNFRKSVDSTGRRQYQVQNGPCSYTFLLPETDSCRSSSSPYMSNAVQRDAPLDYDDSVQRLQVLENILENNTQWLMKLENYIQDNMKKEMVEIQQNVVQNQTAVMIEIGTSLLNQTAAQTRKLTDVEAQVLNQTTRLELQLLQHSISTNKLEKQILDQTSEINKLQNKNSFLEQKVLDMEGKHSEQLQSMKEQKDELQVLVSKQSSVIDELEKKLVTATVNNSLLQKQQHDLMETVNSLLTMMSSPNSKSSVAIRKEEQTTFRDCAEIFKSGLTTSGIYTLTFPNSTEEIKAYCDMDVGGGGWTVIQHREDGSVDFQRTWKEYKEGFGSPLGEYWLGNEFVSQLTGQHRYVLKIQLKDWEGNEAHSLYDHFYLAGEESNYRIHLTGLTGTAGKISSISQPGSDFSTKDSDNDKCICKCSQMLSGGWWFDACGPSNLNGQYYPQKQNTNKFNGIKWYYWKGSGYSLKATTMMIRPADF

In the case of B36, the % inh is reported as 4%.

Target: FLAG tagged human Ang2 (Alexis Biochemicals) (human) (UniProt O15123)
Experiment: competition ELISA, periplasmic extract, FLAG-hAng2 on hTie2/Fc

Going from B2 to B3, the % inh falls from 102% to 67%.

Compared with B5, B8 is lower in % inh: 82% for the first, 78% for the second.

First: B11
Second: B19
The % inh of the first is lower: 96% for the first, 118% for the second.

Target: FLAG-tagged human Ang2 (human) (UniProt O15123)
Experiment: competition ELISA: FLAG-hAng2 binding to coated hTie2-Fc
Remark: another data set of the same source

Going from B1 to B14, the IC50 falls from 6.6 nM to 0.049 nM (130-fold). The second is the more potent here.

B15 and B16 are within 1.5-fold of each other in IC50: 0.05 nM for the first, 0.054 nM for the second.

Going from B17 to B18, the IC50 rises from 0.045 nM to 0.077 nM (1.7-fold).

Going from B20 to B21, the IC50 falls from 0.068 nM to 0.045 nM (1.5-fold).

Going from B22 to B32, the IC50 falls from 1.3 nM to 0.646 nM (2-fold).

Going from B23 to B24, the IC50 falls from 0.9 nM to 0.056 nM (16-fold). The second is the more potent here.

Going from B34 to B25, the IC50 falls from 0.672 nM to 0.064 nM (10-fold).
